T1: histidine-tRNA ligase (Jo-1) (UniProt P12081 2-509)
T1 sequence (looked up): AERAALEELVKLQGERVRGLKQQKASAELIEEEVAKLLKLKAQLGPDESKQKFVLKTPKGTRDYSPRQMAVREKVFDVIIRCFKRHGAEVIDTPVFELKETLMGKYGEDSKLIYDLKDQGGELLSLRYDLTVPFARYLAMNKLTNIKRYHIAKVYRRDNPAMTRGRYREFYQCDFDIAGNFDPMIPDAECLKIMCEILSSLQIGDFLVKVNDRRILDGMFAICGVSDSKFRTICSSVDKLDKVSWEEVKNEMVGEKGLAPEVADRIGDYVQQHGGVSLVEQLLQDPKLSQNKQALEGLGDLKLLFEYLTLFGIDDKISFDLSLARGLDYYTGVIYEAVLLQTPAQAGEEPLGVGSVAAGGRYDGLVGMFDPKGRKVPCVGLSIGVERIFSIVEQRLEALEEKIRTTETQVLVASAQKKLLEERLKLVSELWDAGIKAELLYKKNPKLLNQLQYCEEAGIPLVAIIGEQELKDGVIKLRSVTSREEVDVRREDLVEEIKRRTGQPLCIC

T2: sclerosis autoantigen (Scl-70) (UniProt P11387 2-765, limits assumed)
T2 sequence (looked up): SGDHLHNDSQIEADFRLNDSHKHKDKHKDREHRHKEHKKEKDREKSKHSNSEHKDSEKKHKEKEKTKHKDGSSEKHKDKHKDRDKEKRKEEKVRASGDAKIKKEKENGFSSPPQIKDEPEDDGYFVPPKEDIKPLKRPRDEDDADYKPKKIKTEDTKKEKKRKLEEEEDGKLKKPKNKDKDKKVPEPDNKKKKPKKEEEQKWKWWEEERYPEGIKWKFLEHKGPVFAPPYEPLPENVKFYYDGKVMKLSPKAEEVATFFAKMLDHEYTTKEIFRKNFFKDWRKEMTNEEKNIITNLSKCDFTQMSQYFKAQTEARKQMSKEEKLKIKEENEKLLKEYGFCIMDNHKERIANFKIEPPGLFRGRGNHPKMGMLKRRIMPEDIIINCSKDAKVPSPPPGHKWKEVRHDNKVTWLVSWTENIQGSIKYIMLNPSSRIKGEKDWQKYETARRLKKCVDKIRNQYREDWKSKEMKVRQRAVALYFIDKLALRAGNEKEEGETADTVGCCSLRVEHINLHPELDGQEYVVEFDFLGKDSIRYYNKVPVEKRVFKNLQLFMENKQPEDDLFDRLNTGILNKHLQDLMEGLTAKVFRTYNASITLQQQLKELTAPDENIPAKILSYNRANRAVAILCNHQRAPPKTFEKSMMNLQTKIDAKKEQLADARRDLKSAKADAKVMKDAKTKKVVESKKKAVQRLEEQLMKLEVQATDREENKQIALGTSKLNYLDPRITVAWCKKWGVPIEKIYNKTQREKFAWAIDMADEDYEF

T3: centromere B (CentB) (UniProt P07199 2-599)
T3 sequence (looked up): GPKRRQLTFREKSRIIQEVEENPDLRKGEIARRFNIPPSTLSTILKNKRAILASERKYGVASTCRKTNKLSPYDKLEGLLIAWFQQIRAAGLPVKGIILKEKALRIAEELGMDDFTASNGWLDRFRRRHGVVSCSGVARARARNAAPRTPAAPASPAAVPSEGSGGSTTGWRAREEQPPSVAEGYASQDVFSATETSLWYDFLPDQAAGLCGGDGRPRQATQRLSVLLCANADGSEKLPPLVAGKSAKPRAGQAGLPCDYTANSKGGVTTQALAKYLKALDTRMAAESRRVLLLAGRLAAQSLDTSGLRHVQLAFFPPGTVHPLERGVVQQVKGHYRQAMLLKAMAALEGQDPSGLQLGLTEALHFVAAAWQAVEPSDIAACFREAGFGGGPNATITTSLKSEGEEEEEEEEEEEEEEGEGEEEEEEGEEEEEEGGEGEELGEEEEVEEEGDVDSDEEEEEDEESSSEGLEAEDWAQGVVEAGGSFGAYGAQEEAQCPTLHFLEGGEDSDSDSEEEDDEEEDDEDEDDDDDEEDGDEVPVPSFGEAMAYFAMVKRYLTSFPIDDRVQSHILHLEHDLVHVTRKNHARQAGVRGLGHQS


How the values were obtained:
[1] = molecular target: T1, histidine-tRNA ligase (Jo-1); assay: AtheNA Multi-Lyte ANA, Ab at 6.25 ug/ml;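 note: monoclonal antibodies screened for reactivity against a panel of nuclear autoantigens, with an anti-HIV and an anti-RSV monoclonal antibody serving as controls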
Description: (§1) All 7 mAbs were tested against the AtheNA Multi-Lyte panel of autoantigens. The AtheNA Multi-Lyte ANA test for a panel of nuclear antigens: systemic lupus erythematosus autoantigens SSA and SSB, sphingomyelin (Sm), ribonucleoprotein (RNP), sclerosis autoantigen (Scl-70), histidine-tRNA ligase (Jo-1), double-stranded DNA (dsDNA), centromere B (CentB), and histones. 4e10 (Anti HIV, NIH AIDS Reagent Program) and SYNAGIS® (anti-RSV monoclonal antibody palivizumab; “Synagis”) were used a controls.

[2] = molecular target: T2, sclerosis autoantigen (Scl-70); assay: AtheNA Multi-Lyte ANA, Ab at 6.25 ug/ml;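 note: monoclonal antibodies screened for reactivity against a panel of nuclear autoantigens, with an anti-HIV and an anti-RSV monoclonal antibody serving as controls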
Description: as §1

Sm (sphingomyelin) [3] = molecular target: T4, Sm (sphingomyelin); assay: AtheNA Multi-Lyte ANA, Ab at 6.25 ug/ml;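 note: monoclonal antibodies screened for reactivity against a panel of nuclear autoantigens, with an anti-HIV and an anti-RSV monoclonal antibody serving as controls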
T4 construct: in an ANA panel of nuclear antigens Sm is usually the Smith ribonucleoprotein antigen; Kept, but see recheck
Description: as §1

[4] = molecular target: systemic lupus erythematosus autoantigen SSA; assay: AtheNA Multi-Lyte ANA, Ab at 6.25 ug/ml;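 note: monoclonal antibodies screened for reactivity against a panel of nuclear autoantigens, with an anti-HIV and an anti-RSV monoclonal antibody serving as controls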
Description: as §1

ribonucleoprotein (RNP) [5] = assay: AtheNA Multi-Lyte ANA, Ab at 6.25 ug/ml
Description: as §1

[6] = molecular target: T1, histidine-tRNA ligase (Jo-1); assay: AtheNA Multi-Lyte ANA, Ab at 50 ug/ml;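 note: monoclonal antibodies probed against a nuclear autoantigen panel (SSA, SSB, Sm, RNP, Scl-70, Jo-1, dsDNA, CentB, histones), with anti-HIV 4E10 and palivizumab as control antibodies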
Description: as §1

[7] = molecular target: T2, sclerosis autoantigen (Scl-70); assay: AtheNA Multi-Lyte ANA, Ab at 50 ug/ml;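 note: monoclonal antibodies probed against a nuclear autoantigen panel (SSA, SSB, Sm, RNP, Scl-70, Jo-1, dsDNA, CentB, histones), with anti-HIV 4E10 and palivizumab as control antibodies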
Description: as §1

Sm (sphingomyelin) [8] = molecular target: T4, Sm (sphingomyelin); assay: AtheNA Multi-Lyte ANA, Ab at 50 ug/ml;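 note: monoclonal antibodies probed against a nuclear autoantigen panel (SSA, SSB, Sm, RNP, Scl-70, Jo-1, dsDNA, CentB, histones), with anti-HIV 4E10 and palivizumab as control antibodies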
Description: as §1

[9] = molecular target: systemic lupus erythematosus autoantigen SSA; assay: AtheNA Multi-Lyte ANA, Ab at 50 ug/ml;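 note: monoclonal antibodies probed against a nuclear autoantigen panel (SSA, SSB, Sm, RNP, Scl-70, Jo-1, dsDNA, CentB, histones), with anti-HIV 4E10 and palivizumab as control antibodies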
Description: as §1

ribonucleoprotein (RNP) [10] = assay: AtheNA Multi-Lyte ANA, Ab at 50 ug/ml
Description: as §1

[11] = molecular target: T1, histidine-tRNA ligase (Jo-1); assay: AtheNA Multi-Lyte ANA, Ab at 12.5 ug/ml;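 note: monoclonal antibodies screened for binding to a panel of nuclear autoantigens (SSA, SSB, Sm, RNP, Scl-70, Jo-1, dsDNA, CentB, histones), with anti-HIV and anti-RSV antibodies as controls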
Description: as §1

[12] = molecular target: T2, sclerosis autoantigen (Scl-70); assay: AtheNA Multi-Lyte ANA, Ab at 12.5 ug/ml;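 note: monoclonal antibodies screened for binding to a panel of nuclear autoantigens (SSA, SSB, Sm, RNP, Scl-70, Jo-1, dsDNA, CentB, histones), with anti-HIV and anti-RSV antibodies as controls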
Description: as §1

Sm (sphingomyelin) [13] = molecular target: T4, Sm (sphingomyelin); assay: AtheNA Multi-Lyte ANA, Ab at 12.5 ug/ml;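 note: monoclonal antibodies screened for binding to a panel of nuclear autoantigens (SSA, SSB, Sm, RNP, Scl-70, Jo-1, dsDNA, CentB, histones), with anti-HIV and anti-RSV antibodies as controls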
Description: as §1

[14] = molecular target: systemic lupus erythematosus autoantigen SSA; assay: AtheNA Multi-Lyte ANA, Ab at 12.5 ug/ml;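 note: monoclonal antibodies screened for binding to a panel of nuclear autoantigens (SSA, SSB, Sm, RNP, Scl-70, Jo-1, dsDNA, CentB, histones), with anti-HIV and anti-RSV antibodies as controls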
Description: as §1

ribonucleoprotein (RNP) [15] = assay: AtheNA Multi-Lyte ANA, Ab at 12.5 ug/ml
Description: as §1

centromere B (CentB) = molecular target: T3, centromere B (CentB); assay: AtheNA Multi-Lyte ANA, Ab at 6.25 ug/ml
Description: as §1

AtheNA signal [1]	AtheNA signal [2]	AtheNA signal (Sm (sphingomyelin) [3])	AtheNA signal [4]	AtheNA signal (ribonucleoprotein (RNP) [5])	AtheNA signal [6]	AtheNA signal [7]	AtheNA signal (Sm (sphingomyelin) [8])	AtheNA signal [9]	AtheNA signal (ribonucleoprotein (RNP) [10])	AtheNA signal [11]	AtheNA signal [12]	AtheNA signal (Sm (sphingomyelin) [13])	AtheNA signal [14]	AtheNA signal (ribonucleoprotein (RNP) [15])	AtheNA signal (centromere B (CentB))	Binder
4	3	4	4	7	7	4	7	7	10	2	3	7	4	7		Ab7968 (antibody, IgG1, V domains shown, Recombinant human antibody with IgG1 heavy chain backbone and kappa light chain constant; they begin at LVESGGG and MTQSP; also called mAb 7968; mAb7968) VH: LVESGGGVVQPGRSLRLSCAASGFTFSRYGMHWVRQAPGKGLEWVAVMSYDGSTKYYADSVKGRFAISRDNPKNTLFLQMNSLRPDDTAVYYCAKGGAAAAVMDVWGKGTTVTVSS VL: MTQSPDSLTVSLGERATISCKSSQRLLYSSNNKNYLAWYQQKPGQPPKLLMYWASTRESGVPDRFSGSGSGTDFSLTISSLQAEDVAVYYCQQYYNPPWTFGQGTKVEVK
3	2	3	9	3	5	2	4	11	6	3	2	1	9	3	2	Ab7957/293i (antibody, IgG1, V domains shown, Recombinant human antibody with IgG1 heavy chain backbone and kappa light chain constant; they begin at LVESGGG and MTQSP; also called Ab7957i; mAb 7957) VH: LVESGGGVVPPGKSLRLSCAASGFTFSLYGIHWVRQAPGKGLEWVAVISYDGNTKYYTDSVKGRFTISRDNAKNTIYLQMNSLRLDDTAVYYCAKGAANSATFDFWGRGTMVTVSS VL: MTQSPDSLTLSLGERATINCRSSRTVLYRSNNKNYLAWYQHKPGQPPKLLMSWASTRETGVPDRFSGSGSGTHFTLTITSLQPEDVAVYYCQQYYSPPWTFGQGTKVEIR
4	1	4	2	2	4	2	4	2	5	5	2	3	2	3	1	Ab7962/293i (antibody, V domains shown, Recombinant human antibody with IgG1 heavy chain backbone and kappa light chain constant (IgM in the donor B cell); they begin at LVESGGG and MTQSL; also called clone 27; pH007962/pK005996) VH: LVESGGGLVQPGGSLRLSCAASGFTFSSYEMNWVRQAPGKGLEWVSYISSSGSTIYYADSVKGRFTISRDNAKNSLYLQMNSLRAEDTAVYYCARVEQLAPSPYMDVWGKGTTVTVSS VL: MTQSLDSLTVSLGERATINCKSSQSLLYTSNNKNYLAWYQQKSGQPPKLLIYWASIRDSGVPDRFSGSGSATDFTLTINNLQAEDVAVYFCQQYYKTPLTFGGGTKVEVR

From US20190315842A1 (DUKE UNIVERSITY, published 2019)
